Data from the RNAGym collection of RNA variant scans (doi:10.1093/nar/gkz1192).

B1: CPEB3 Ribozyme (parent)
chain: UAACAGGGGGCCACAGCAGAAGCGUUCACGUCGCAGCCCCUGUCAGAUUCUGGUGAAUCUGCGAAUUCUGCUGUAUAUCUC

Variants of: B1
Test: self-cleavage, relative activity (ratio to wild type); higher = more cleavage; in vitro, sequencing
Outline: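 Relative activity compares each variant's cleaved/total read fraction with that of the unmutated ribozyme. To get these fractions, barcoded CPEB3 ribozyme libraries from rounds of error-prone PCR were transcribed with T7 RNA polymerase for 5 hours at 37°C and then given 15 min of DNase I treatment before EDTA was added. The RNAs were reverse transcribed with template switching and sequenced on Illumina, and DNA sequencing linked barcodes to variants. A minimum of 5 reads applied, and three batches were averaged.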

Variant	self-cleavage
UAACAGGGGGCCACAGCAGGAGCGUUCACGUCGCAGCCCCUGUCAGAUUCUGGUGAAUCUGCGAAUUCUGCUAUAUAUCUC [A20G G73A]	1.22
UAACAGGGGGCCACAGCAGGAGCGUUCACGUCGCAGCCCCUGUCAGAUUCUGGUGAAUCUGCGAAUUCUGCUUUAUAUCUC [A20G G73U]	1.19
UAACAGGGGGCCACAGCAGGAGCGUUCACGUCGCAGCGCCUGUCAGAUUCUGGUGAAUCUGCGAAUUCUGCUGUAUAUCUC [A20G C38G]	0.12
UAACAGGGGGCCACAGCAGGAGCGUUCACGUCGCAGCACCUGUCAGAUUCUGGUGAAUCUGCGAAUUCUGCUGUAUAUCUC [A20G C38A]	0.37
UAACAGGGGGCCACAGCAGGAGCGUUCACGUCGCAGCUCCUGUCAGAUUCUGGUGAAUCUGCGAAUUCUGCUGUAUAUCUC [A20G C38U]	0.37
UAACAGGGGGCCACAGCAGGAGCGUUCACGUCGCAGCCCCUGUCAGAUUCUGGUGAAUCUGCGAAUUCUGCUGUAUAUCUG [A20G C81G]	0.88
UAACAGGGGGCCACAGCAGGAGCGUUCACGUCGCAGCCCCUGUCAGAUUCUGGUGAAUCUGCGAAUUCUGCUGUAUAUCUU [A20G C81U]	1.09
UAACAGGGGGCCACAGCAGGAGCGUUCACGUCGCAGCCCCUGUCAGAUUCUGGUGAAUCUGCGAAUUCUGCUGUAUAUCUA [A20G C81A]	1.09
UAACAGGGGGCCACAGCAGGAGCGUUCACGUCGCAGCCCCUGUUAGAUUCUGGUGAAUCUGCGAAUUCUGCUGUAUAUCUC [A20G C44U]	0.21
UAACAGGGGGCCACAGCAGGAGCGUUCACGUCGCAGCCCCUGUAAGAUUCUGGUGAAUCUGCGAAUUCUGCUGUAUAUCUC [A20G C44A]	0.32
UAACAGGGGGCCACAGCAGGAGCGUUCACGUCACAGCCCCUGUCAGAUUCUGGUGAAUCUGCGAAUUCUGCUGUAUAUCUC [A20G G33A]	0.35
UAACAGGGGGCCACAGCAGGAGCGUUCACGUCUCAGCCCCUGUCAGAUUCUGGUGAAUCUGCGAAUUCUGCUGUAUAUCUC [A20G G33U]	0.29
UAACAGGGGGCCACAGCAGGAGCGUUCACGUCCCAGCCCCUGUCAGAUUCUGGUGAAUCUGCGAAUUCUGCUGUAUAUCUC [A20G G33C]	0.14
UAACAGGGGGCCACAGCAGGAGCGUUCACGUCGCAGCCCCUGUCAAAUUCUGGUGAAUCUGCGAAUUCUGCUGUAUAUCUC [A20G G46A]	0.26
UAACAGGGGGCCACAGCAGGAGCGUUCACGUCGCAGCCCCUGUCAUAUUCUGGUGAAUCUGCGAAUUCUGCUGUAUAUCUC [A20G G46U]	0.23
UAACAGGGGGCCACAGCAGGAGCGUUCACGUCGCAGCCCCUGUCACAUUCUGGUGAAUCUGCGAAUUCUGCUGUAUAUCUC [A20G G46C]	0.11
UAACAGGGGGCCACAGCAGGAGCGUUCACGUCGCAGCCCCUGUCAGAUUCUGGUGAAUCUGCGAAUUUUGCUGUAUAUCUC [A20G C68U]	0.75
UAACAGGGGGCCACAGCAGGAGCGUUCACGUCGCAGCCCCUGUCAGAUUCUGGUGAAUCUGCGAAUUAUGCUGUAUAUCUC [A20G C68A]	0.24
UAACAGGGGGCCACAGCAGGAGCGUUCACGUCGCAGCCCCUGUCAGAUUCUGGUGAAUCUGCGAAUUCUGCUGUAUAUGUC [A20G C79G]	1.09
UAACAGGGGGCCACAGCAGGAGCGUUCACGUCGCAGCCCCUGUCAGAUUCUGGUGAAUCUGCGAAUUCUGCUGUAUAUAUC [A20G C79A]	1.09
UAACAGGGGGCCACAGCAGGAGCGUUCACGUCGCAGCCCCUGUCAGAUUCUGGUGAAUCUGCGAAUUCUGCUGUAUAUUUC [A20G C79U]	0.85
UAACAGGGGGCCACAGCAGGAGCGUUCACGUCGCAGCCCCUGUCAGAUUGUGGUGAAUCUGCGAAUUCUGCUGUAUAUCUC [A20G C50G]	0.57
UAACAGGGGGCCACAGCAGGAGCGUUCACGUCGCAGCCCCUGUCAGAUUUUGGUGAAUCUGCGAAUUCUGCUGUAUAUCUC [A20G C50U]	0.99

Variant	self-cleavage
UAACAGGGGGCCACAGCAGGAGCGUUCACGUCGCAGCCCCUGUCAGAUUAUGGUGAAUCUGCGAAUUCUGCUGUAUAUCUC [A20G C50A]	0.89
UAACAGGGGGCCACAGCAGGAGCGUCCACGUCGCAGCCCCUGUCAGAUUCUGGUGAAUCUGCGAAUUCUGCUGUAUAUCUC [A20G U26C]	0.37
UAACAGGGGGCCACAGCAGGAGCGUGCACGUCGCAGCCCCUGUCAGAUUCUGGUGAAUCUGCGAAUUCUGCUGUAUAUCUC [A20G U26G]	0.36
UAACAGGGGGCCACAGCAGGAGCGUACACGUCGCAGCCCCUGUCAGAUUCUGGUGAAUCUGCGAAUUCUGCUGUAUAUCUC [A20G U26A]	0.77
UAACAGGGGGCCACAGCAGGAGCGUUCACGUCGCAGCCCCUGUCAGAUUCUGGUGAAUCUUCGAAUUCUGCUGUAUAUCUC [A20G G61U]	0.39
UAACAGGGGGCCACAGCAGGAGCGUUCACGUCGCAGCCCCUUUCAGAUUCUGGUGAAUCUGCGAAUUCUGCUGUAUAUCUC [A20G G42U]	0.22
UAACAGGGGGCCACAGCAGGAGCGUUCACGUCGCAGCCCCUAUCAGAUUCUGGUGAAUCUGCGAAUUCUGCUGUAUAUCUC [A20G G42A]	0.53
UAACAGGGGGCCACAGCAGGAGCGUUCACAUCGCAGCCCCUGUCAGAUUCUGGUGAAUCUGCGAAUUCUGCUGUAUAUCUC [A20G G30A]	0.3
UAACAGGGGGCCACAGCAGGAGCGUUCACCUCGCAGCCCCUGUCAGAUUCUGGUGAAUCUGCGAAUUCUGCUGUAUAUCUC [A20G G30C]	0.24
UAACAGGGGGCCACAGCAGGAGCGUUCACUUCGCAGCCCCUGUCAGAUUCUGGUGAAUCUGCGAAUUCUGCUGUAUAUCUC [A20G G30U]	0.25
UAACAGGGGGCCACAGCAGGAGCGUUCACGGCGCAGCCCCUGUCAGAUUCUGGUGAAUCUGCGAAUUCUGCUGUAUAUCUC [A20G U31G]	0.58
UAACAGGGGGCCACAGCAGGAGCGUUCACGACGCAGCCCCUGUCAGAUUCUGGUGAAUCUGCGAAUUCUGCUGUAUAUCUC [A20G U31A]	0.37
UAACAGGGGGCCACAGCAGGAGCGUUCACGCCGCAGCCCCUGUCAGAUUCUGGUGAAUCUGCGAAUUCUGCUGUAUAUCUC [A20G U31C]	0.56
UAACAGGGGGCCACAGCAGGAGCGUUCACGUCGCAGCCACUGUCAGAUUCUGGUGAAUCUGCGAAUUCUGCUGUAUAUCUC [A20G C39A]	0.37
UAACAGGGGGCCACAGCAGGAGCGUUCACGUCGCAGCCUCUGUCAGAUUCUGGUGAAUCUGCGAAUUCUGCUGUAUAUCUC [A20G C39U]	0.63
UAACAGGGGGCCACAGCAGGAGCGUUCACGUCGCAGCCCCAGUCAGAUUCUGGUGAAUCUGCGAAUUCUGCUGUAUAUCUC [A20G U41A]	0.28
UAACAGGGGGCCACAGCAGGAGCGUUCACGUCGCAGGCCCUGUCAGAUUCUGGUGAAUCUGCGAAUUCUGCUGUAUAUCUC [A20G C37G]	0.78
UAACAGGGGGCCACAGCAGGAGCGUUCACGUCGCAGUCCCUGUCAGAUUCUGGUGAAUCUGCGAAUUCUGCUGUAUAUCUC [A20G C37U]	0.62
UAACAGGGGGCCACAGCAGGAGCAUUCACGUCGCAGCCCCUGUCAGAUUCUGGUGAAUCUGCGAAUUCUGCUGUAUAUCUC [A20G G24A]	0.29
UAACAGGGGGCCACAGCAGGAGCUUUCACGUCGCAGCCCCUGUCAGAUUCUGGUGAAUCUGCGAAUUCUGCUGUAUAUCUC [A20G G24U]	0.14
UAACAGGGGGCCACAGCAGGAGCGUUCACGUCGCAGCCCCUGUCAGAUUCUAGUGAAUCUGCGAAUUCUGCUGUAUAUCUC [A20G G52A]	0.9
UAACAGGGGGCCACAGCAGGAGCGUUCACGUCGCAGCCCCUGUCAGAUUCUUGUGAAUCUGCGAAUUCUGCUGUAUAUCUC [A20G G52U]	1.12
UAACAGGGGGCCACAGCAGGAGCGCUCACGUCGCAGCCCCUGUCAGAUUCUGGUGAAUCUGCGAAUUCUGCUGUAUAUCUC [A20G U25C]	0.3

Variant	self-cleavage
UAACAGGGGGCCACAGCAGGAGCGAUCACGUCGCAGCCCCUGUCAGAUUCUGGUGAAUCUGCGAAUUCUGCUGUAUAUCUC [A20G U25A]	0.27
UAACAGGGGGCCACAGCAGGAGCGGUCACGUCGCAGCCCCUGUCAGAUUCUGGUGAAUCUGCGAAUUCUGCUGUAUAUCUC [A20G U25G]	0.41
UAACAGGGGGCCACAGCAGGAGCGUUCACGUCGCAGCCCCUGUCAGAUUCUGAUGAAUCUGCGAAUUCUGCUGUAUAUCUC [A20G G53A]	0.98
UAACAGGGGGCCACAGCAGGAGCGUUCACGUCGCAGCCCCUGUCAGAUUCUGUUGAAUCUGCGAAUUCUGCUGUAUAUCUC [A20G G53U]	0.69
UAACAGGGGGCCACAGCAGGAGCGUUCACGUCGCAGCCCCUGUCAGAUUCUGGUAAAUCUGCGAAUUCUGCUGUAUAUCUC [A20G G55A]	0.58
UAACAGGGGGCCACAGCAGGAGCGUUCACGUCGCAGCCCCUGUCAGAUUCUGGUUAAUCUGCGAAUUCUGCUGUAUAUCUC [A20G G55U]	0.62
UAACAGGGGGCCACAGCAGGAGCGUUCACGUCGCAACCCCUGUCAGAUUCUGGUGAAUCUGCGAAUUCUGCUGUAUAUCUC [A20G G36A]	0.36
UAACAGGGGGCCACAGCAGGAGCGUUCACGUCGCAGCCCCUGUCAGAUUCUGGUGAAUCUGCCAAUUCUGCUGUAUAUCUC [A20G G63C]	0.63
UAACAGGGGGCCACAGCAGGAGCGUUCACGUCGCAGCCCCUGUCAGAUUCUGGUGAAUCUGCAAAUUCUGCUGUAUAUCUC [A20G G63A]	0.63
UAACAGGGGGCCACAGCAGGAGCGUUCACGUCGCAGCCCCUGUCAGAUUCUGGUGAAUCUGCUAAUUCUGCUGUAUAUCUC [A20G G63U]	0.83
UAACAGGGGGCCACAGCAGGAACGUUCACGUCGCAGCCCCUGUCAGAUUCUGGUGAAUCUGCGAAUUCUGCUGUAUAUCUC [A20G G22A]	0.46
UAACAGGGGGCCACAGCAGGAGCGUUCACGUCGCAGCCCCUGUCAGAUUCUGGUGAAUCUGGGAAUUCUGCUGUAUAUCUC [A20G C62G]	0.17
UAACAGGGGGCCACAGCAGGAGCGUUCACGUCGCAGCCCCUGUCAGAUUCUGGUGAAUCUGUGAAUUCUGCUGUAUAUCUC [A20G C62U]	0.2
UAACAGGGGGCCACAGCAGGAGCGUUCACGUCGCAGCCCCUGUCAGAUUCUGGUGAAUGUGCGAAUUCUGCUGUAUAUCUC [A20G C59G]	0.45
UAACAGGGGGCCACAGCAGGAGCGUUCACGUCGCAGCCCCUGUCAGAUUCUGGUGAAUUUGCGAAUUCUGCUGUAUAUCUC [A20G C59U]	0.82
UAACAGGGGGCCACAGCAGGAGCGUUCACGUCGCAGCCCCUGUCAGAUUCUGGUGAAUCUGCGAAUUCUGUUGUAUAUCUC [A20G C71U]	0.56
UAACAGGGGGCCACAGCAGGAGCGUUCACGUCGCAGCCCCUGUCAGAUUCUGGUGAAUCUGCGAAUUCUGAUGUAUAUCUC [A20G C71A]	0.15
UAACAGGGGGCCACAGCAGGAGCGUUCACGUCGCAGCCCCUGUCAGAUUCUGGUGAAUCUGCGAAUUCUGGUGUAUAUCUC [A20G C71G]	0.14
UAACAGGGGGCCACAGCAGGAGCGUUCACGUCGCAGCCCCUGUCAGAUUCUGGUGAAUCUGCGAAUUCUCCUGUAUAUCUC [A20G G70C]	0.19
UAACAGGGGGCCACAGCAGGAGCGUUCACGUCGCAGCCCCUGUCAGAUUCUGGUGAAUCUGCGAAUUCUACUGUAUAUCUC [A20G G70A]	0.33
UAACAGGGGGCCACAGCAGGAGCGUUCACGUCGCAGCCCAUGUCAGAUUCUGGUGAAUCUGCGAAUUCUGCUGUAUAUCUC [A20G C40A]	0.23
UAACAGGGGGCCACAGCAGGAGCGUUCACGUCGCAGCCCUUGUCAGAUUCUGGUGAAUCUGCGAAUUCUGCUGUAUAUCUC [A20G C40U]	0.46
